# Assay results taken from patent US20240270826A1 (NATIONAL RESEARCH COUNCIL OF CANADA, published 2024).
# B1: NRCoV2-1d VHH-Fc (Fc fusion)
# chain: EVQLVESGGGSVQPGGSLRLSCAASGSTLDYYAIGWFRQAPGKEREWVSSVSSSDGNTLYADSVKGRFTISRDNAKNTVYLQMNSLKAEDTAVYVCAADYSMRPFAVGRWHRDYEYWGQGTQVTVSS
# notes: bivalent VHH-Fc
# B2: NRCoV2-SR01 VHH-Fc (Fc fusion)
# chain: EVQLVQSGGGSVQAGGSLRLSCVASGFTFDNYAIGWFRQAPGKEREGVSCISGNGGVTIYADSVKGRFTISRDNAKNLVYLQMNSLKPEDTAVYYCAATGIRSTWSVYGCSRLAGPYDYWGQGTQVTVSS
# notes: bivalent VHH-Fc
# B3: NRCoV2-SR13 VHH-Fc (Fc fusion)
# chain: EVQLVESGGGLVTTGGSLRLSCATSGSRFGSKHMAWYRQAPGKQRDLVAAISSGGSTHYGSSVKGRFTISRDNAKSTVYLQMNSLNPEDTAVFYCNMGGWDYRSNTYIPGSRSDYWGQGTQVTVSS
# notes: bivalent VHH-Fc
# B4: NRCoV2-SR02 VHH-Fc (Fc fusion)
# chain: EVQLVDSGGGLVQAGGSLRLSCTASEFTLNYYSIGWFRQSPGKEREGVSCIRYSGGGIDYADSVKGRFTISRDNAKNTVYLTMNSLKPEDTAVYYCAADRLYSRACPTAGGRNYWGQGTQVTVSS
# notes: bivalent VHH-Fc
# B5: NRCoV2-15 VHH (VHH)
# VHH: EVQLVSSGGGLVEAGGSLRLSCIASGSTSGRNTMGWFRQAPGKQREWVAIVSTSGATNYAGSVKGRFTLSRDNAKNAVYLQMNNLKPEDTAVYYCYAAYGGGGDYWGQGTQVTVSS
# B6: NRCoV2-20 VHH (VHH)
# VHH: EVQLQQSGGGLVQPGGSLRLSCAASGRTFSNYVVGWFRQAPQAPGKDHEFVAVISGSDTETYYADSVKGRFTISRDNAKNTVYLQMNSLKPEDTAVYYCAADRGMSYYYTRATEYYYWGQGTQVTVSS
# B7: NRCoV2-1d VHH (VHH)
# VHH: B1 chain
# B8: NRCoV2-10 VHH (VHH)
# VHH: QLQLQESGGGLVQPGGSLTLSCAASGNTFSRSNMHWYRQAPGAQREWVAAISSRGISTYAYSAKGRFTISRDNAKNTVSLQMNSLKPEDTAVYYCYAADDLGDYWGQGTQVTVSS
# B9: NRCoV2-07 VHH (VHH)
# VHH: QVQLVQSGGGLVQPGGSLRLSCAASGVTLDYYAIGWFRQAPGKEREAVSCISSNGRRNHYVASVRGRFTISRDNAKSTVYLQMNSLKPEDTAVYYCAAVQDVHGDNYYCTSPNEYNVWGQGTQVTVSS
# B10: NRCoV2-S2G3 VHH (VHH)
# VHH: QVQLVQSGGGSVQAGGSLRLSCAASGSTFGIFLMGWRRQAPGKQRELVAHITSGGATNYADSVKGRFTISRDNAKNTVYLQMNSLEPEDTAVYYCYTTKRDDASVYWGQGTQVTVSS
# B11: NRCoV2-S2F3 VHH (VHH)
# VHH: EVQLVQSGGGLVQAGGSLRLSCATSVRILSVPAMGWYRQAPGKEREMVAVITSGGSTNYADSVKGRFTISRDNAKNTVYLQMNSLKLEDTAVYQCNLRDILSQPFWGQGTQVTVSS
# B12: NRCoV2-02 VHH (VHH)
# VHH: EVQLVESGGGLVQAGGSLRLSCAASGFTFSNYAMNWVRQAPGKGLEWVSGISGRGDDTRYADSVKGRFTISRDNAKNTLFLQMRSLRPEDTGVYRCTKGPDLYYFGSGYSDRGQGTQVTVSS
# B13: NRCoV2-05 VHH (VHH)
# VHH: EVKLVQSGGGLVQPGGSLRLSCAASGFIFSNYAMNWVRQAPGKGLEWVSGINSGGGDTRYADSVKGRFTVSRDNAKNTLYLQMNSLKPEDTGVYYCSKGPVSSYYGSGYDYRGQGTQVTVSS
# B14: NRCoV2-S2G4 VHH (VHH)
# VHH: QVQLVQSGGGLVQAGGSLTLSCAPSGSTFSGYATNWYRQAPGKQRELVATISSDGDKNYADSVKGRFTISRDNAKNTVYLQMNSLKPEDTAVYYCNKHWWTGDWWGQGTQVTVSS
# B15: NRCoV2-03 VHH (VHH)
# VHH: EVQLVSSGGGLVQAGGSLRLSCTASGITFSYYAMGWYRQAPGQPRELVASMSNMDSTIYADSVKGRFTISRDNAKTTIYLQMNNLKPEDTAVYFCNIYGPTYSTRRNEYWGQGTQVTVSS
# B16: NRCoV2-06 VHH (VHH)
# VHH: EVQLVQSGGGLVQAGESLRLSCAASVSTFSSYAMGWYRQAPGKQRELVASIGFVGATYYIDSVKGRFTISRDNAKKTAYLQMNDLKPDDTAVYYCNARHYGGSEYWGQGTQVTVSS
# B17: NRCoV2-14 VHH (VHH)
# VHH: EVQLVSSGGGLVQAGGSLRLSCEASGTTFSHYAVGWYRQAPGKQREWVASISVFGSTTYGGSVAGRFTISRDNDKNTVDLQMNSLKPEDTAVYYCHAVNADIGGDYWGQGTQVTVSS
# B18: NRCoV2-18 VHH (VHH)
# VHH: EVQLVESGGGLVQAGGSLRLSCVASGITISGYNMAWWRQTRGKQTERVAFINSGGSTTYSDSVKGRFTISRDNGKNTAYLQMNSLNAEDTADYFCSLHTSHDYWGQGTQVTVSS
# B19: NRCoV2-04 VHH (VHH)
# VHH: AVQLVDSGGGLVQPGGSLRLSCAASGSPFSNVVMAWYRQAPGKQRERVAFISGGGIADYIMSVKGRFTISRDNAKNTVYLQMNSLKPEDTAVYYCWSSYESTWGQGTQVTVSS
# Target: T1, SARS-CoV-2 S on CHO-S cells (SARS-CoV-2, UniProt P0DTC2 14-1273)
# T1 construct: whole, on cells
# Test: flow cytometry, CHO-S cells
Binder,Bmax,EC50 [nM]
B1,13800,1.1
B2,15400,6.6
B3,17800,7
B4,14400,1.2

# Target: SARS-CoV-2 S1-NTD (aa16-305) (SARS-CoV-2 Wuhan, UniProt P0DTC2 16-305)
# Test: ELISA
row,Binder,binding result
1,B1,no binding (tested: 13 nM)

# Target: T2, SARS-CoV-2 S2 (aa686-1208) (Wuhan) (SARS-CoV-2 Wuhan, UniProt P0DTC2 686-1208)
# T2 construct: NRC; FLAG, 6xHis tags
# Test: ELISA
row,Binder,binding result
1,B1,no binding (tested: 13 nM)
2,B2,no binding (tested: 13 nM)
3,B3,no binding (tested: 13 nM)
4,B4,no binding (tested: 13 nM)

# Target: T3, SARS-CoV-2 S1 (aa16-685) (Wuhan) (SARS-CoV-2 Wuhan, UniProt P0DTC2 16-685)
# T3 construct: NRC; FLAG, 6xHis tags
# Test: SPR, antigen on chip
Binder,Kd [nM],koff [s⁻¹],kon [M⁻¹ s⁻¹],binding result
B5,0.333,0.000225,675000,–
B6,9.63,0.0189,1.96e+06,–
B7,1.32,0.00114,867000,–
B8,0.213,9.54e-05,448000,–
B9,1.02,0.000308,301000,–
B10,–,–,–,no binding
B11,–,–,–,no binding
B12,0.659,0.00138,2.1e+06,–
B13,2,0.00806,4.03e+06,–
B14,–,–,–,no binding
B15,1.09,0.000263,241000,–
B16,129,0.0133,104000,–
B17,3.49,0.00112,319000,–
B18,0.536,0.000165,308000,–
B19,11.2,0.018,1.61e+06,–

# Target: T4, SARS-CoV-2 spike trimer S (Wuhan, SmT1) (SARS-CoV-2 Wuhan)
# T4 construct: extracellular domain
# Test: SPR, antigen on chip
Binder,Kd [nM],koff [s⁻¹],kon [M⁻¹ s⁻¹]
B5,0.313,0.000221,706000
B6,6.73,0.0159,2.37e+06
B7,1.1,0.00117,1.06e+06
B8,0.192,9.27e-05,483000
B9,1.15,0.000403,350000
B10,3.74,0.000607,162000
B11,3.03,0.000473,156000
B12,0.661,0.00141,2.14e+06
B13,1.72,0.00743,4.33e+06
B14,0.232,0.000207,893000
B15,1.34,0.000334,250000
B16,155,0.00469,30200
B17,3.1,0.00164,528000
B18,0.384,0.000152,395000
B19,10,0.0198,1.97e+06

# Target: SARS-CoV-2 S1-RBD fused to human Fc (S1-RBD-Fc) (SARS-CoV-2 Wuhan; human)
# Test: SPR, antigen on chip
Binder,Kd [nM],koff [s⁻¹],kon [M⁻¹ s⁻¹]
B5,0.342,0.000233,682000
B6,8.61,0.0123,1.43e+06
B7,2.1,0.00118,562000
B8,0.266,9.32e-05,351000
B9,0.894,0.000284,318000
B12,0.773,0.00141,1.83e+06
B13,2.33,0.00585,2.51e+06
B15,1.53,0.000255,166000
B16,69.9,0.00415,59400
B17,3.61,0.000944,261000
B18,0.736,0.000197,268000
B19,12.5,0.0192,1.53e+06

# Target: T2, SARS-CoV-2 S2 (aa686-1208) (Wuhan)
# Test: SPR, antigen on chip
Binder,binding result,Kd [nM],koff [s⁻¹],kon [M⁻¹ s⁻¹]
B5,no binding,–,–,–
B6,no binding,–,–,–
B7,no binding,–,–,–
B8,no binding,–,–,–
B9,no binding,–,–,–
B10,–,4.28,0.000627,147000
B11,–,6.22,0.000629,101000
B12,no binding,–,–,–
B13,no binding,–,–,–
B14,–,0.413,0.000382,925000
B15,no binding,–,–,–
B16,no binding,–,–,–
B17,no binding,–,–,–
B18,no binding,–,–,–
B19,no binding,–,–,–
